Measurements taken from article PMC5201418.

What was measured:
[1] = target: Trypanosoma brucei S-adenosylmethionine decarboxylase, wild type (Trypanosoma brucei)
[2] = target: N-terminally truncated TbAdoMetDCΔ26 (Trypanosoma brucei)
[3] = target: TbAdoMetDC H172A (Trypanosoma brucei)
[4] = target: TbAdoMetDC-W137A/M146A (Trypanosoma brucei)

Sequence of Trypanosoma brucei S-adenosylmethionine decarboxylase, wild type (Trypanosoma brucei) (P50244 1-85, tags left off, chain 1 of 2): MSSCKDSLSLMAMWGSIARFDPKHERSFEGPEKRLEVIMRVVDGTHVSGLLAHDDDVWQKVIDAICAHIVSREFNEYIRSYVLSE
Sequence of Trypanosoma brucei S-adenosylmethionine decarboxylase, wild type (Trypanosoma brucei) (P50244 86-370 limits assumed, chain 2 of 2): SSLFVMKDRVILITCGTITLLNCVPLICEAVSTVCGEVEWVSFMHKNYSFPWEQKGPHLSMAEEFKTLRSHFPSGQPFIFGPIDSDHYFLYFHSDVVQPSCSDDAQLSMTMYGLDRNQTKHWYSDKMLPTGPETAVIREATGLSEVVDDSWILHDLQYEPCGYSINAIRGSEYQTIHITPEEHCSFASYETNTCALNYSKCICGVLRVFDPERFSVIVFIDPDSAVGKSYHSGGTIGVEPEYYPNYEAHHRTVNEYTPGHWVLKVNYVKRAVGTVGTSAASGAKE

Row | Substance | kcat/Km of AdoMet decarboxylation (14C-AdoMet, 37°C) by the TbAdoMetDC/prozyme heterodimer, with 4 mM putrescine [1] | kcat/Km of AdoMet decarboxylation (14C-AdoMet, 37°C) by the TbAdoMetDC/prozyme heterodimer, without putrescine [1] | kcat/Km of AdoMet decarboxylation (14C-AdoMet, 37°C) by the TbAdoMetDC/prozyme heterodimer, with 4 mM putrescine [2] | kcat/Km of AdoMet decarboxylation (14C-AdoMet, 37°C) by the TbAdoMetDC/prozyme heterodimer, without putrescine [2] | kcat/Km of AdoMet decarboxylation (14C-AdoMet, 37°C) by the TbAdoMetDC/prozyme heterodimer, with 4 mM putrescine [3] | kcat/Km of AdoMet decarboxylation (14C-AdoMet, 37°C) by the TbAdoMetDC/prozyme heterodimer, without putrescine [3] | kcat/Km of AdoMet decarboxylation (14C-AdoMet, 37°C) by the TbAdoMetDC/prozyme heterodimer, with 4 mM putrescine [4] | kcat/Km of AdoMet decarboxylation (14C-AdoMet, 37°C) by the TbAdoMetDC/prozyme heterodimer, without putrescine [4]
1 | prozyme-M148'A/Y152'A (natural protein) | 660 s^−1M^−1 | 16 s^−1M^−1 |  |  |  |  |  | 
2 | Trypanosoma brucei prozyme, wild type (natural protein) | 3200 s^−1M^−1 | 2600 s^−1M^−1 | 7.6 s^−1M^−1 | 2.2 s^−1M^−1 | 2100 s^−1M^−1 | 93 s^−1M^−1 | 87 s^−1M^−1 | 5 s^−1M^−1
